Source: the supplement of paper PMC5998384

Assays:
[1] = tested on: HeLa Kyoto; assay: thermal stability score vs G1/S (z-score of summed log2 fold changes over temperatures); higher = more thermally stable than in G1/S
[2] = tested on: HeLa Kyoto; assay: solubility in G1/S (NP-40 vs SDS abundance) (log2 ratio); higher = more soluble; details: cell cycle stage: G1/S
[3] = tested on: HeLa Kyoto; assay: solubility change mitosis vs G1/S (difference of NP-40 vs SDS log2 ratios) (log2 ratio difference); higher = more soluble in mitosis
[4] = tested on: HeLa Kyoto; assay: melting temperature (median over replicates), in situ; higher = more thermally stable
[5] = cell cycle stage: early G1 (4.5 h after nocodazole release)
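For melting temperature (median over replicates), in situ in this document: HeLa Kyoto cells synchronized by double thymidine or nocodazole block, proteins quantified by TMT10plex mass spectrometry, three independent biological replicates.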
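For solubility change mitosis vs G1/S (difference of NP-40 vs SDS log2 ratios) in this document: synchronized HeLa Kyoto cells (double thymidine block for G1/S, nocodazole release for mitosis), protein amounts in NP-40 versus SDS lysates quantified by mass spectrometry, three biological replicates.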
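For solubility in G1/S (NP-40 vs SDS abundance) in this document: HeLa Kyoto cells arrested at G1/S by double thymidine block, proteins quantified by TMT10plex mass spectrometry in mild NP-40 versus SDS extracts, three biological replicates.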
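For thermal stability score vs G1/S (z-score of summed log2 fold changes over temperatures) in this document: synchronized HeLa Kyoto cells, proteins quantified by TMT10plex mass spectrometry, three biological replicates, mitosis taken 0.5 h after nocodazole release, G1/S directly after double thymidine block.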

Sequence	thermal stability score [1, 5]	thermal stability score ([1]; cell cycle stage: mitosis)	solubility in G1/S (log2) [2]	solubility change mitosis (log2) [3]	melting temperature ([4]; cell cycle stage: G1/S) [°C]	melting temperature ([4]; cell cycle stage: mitosis) [°C]
MTDQAFVTLTTNDAYAKGALVLGSSLKQHRTTRRLVVLATPQVSDSMRKVLETVFDEVIMVDVLDSGDSAHLTLMKRPELGVTLTKLHCWSLTQYSKCVFMDADTLVLANIDDLFDREELSAAPDPGWPDCFNSGVFVYQPSVETYNQLLHLASEQGSFDGGDQGILNTFFSSWATTDIRKHLPFIYNLSSISIYSYLPAFKVFGASAKVVHFLGRVKPWNYTYDPKTKSVKSEAHDPNMTHPEFLILWWNIFTTNVLPLLQQFGLVKDTCSYVNVLSDLVYTLAFSCGFCRKEDVSGAISHLSLGEIPAMAQPFVSSEERKERWEQGQADYMGADSFDNIKRKLDTYLQ [GYG1]	-3.5	-5.58	0.0958	-0.149	56.3	52.1
MENGYTYEDYKNTAEWLLSHTKHRPQVAIICGSGLGGLTDKLTQAQIFDYGEIPNFPRSTVPGHAGRLVFGFLNGRACVMMQGRFHMYEGYPLWKVTFPVRVFHLLGVDTLVVTNAAGGLNPKFEVGDIMLIRDHINLPGFSGQNPLRGPNDERFGDRFPAMSDAYDRTMRQRALSTWKQMGEQRELQEGTYVMVAGPSFETVAECRVLQKLGADAVGMSTVPEVIVARHCGLRVFGFSLITNKVIMDYESLEKANHEEVLAAGKQAAQKLEQFVSILMASIPLPDKAS [PNP]	-0.982	-1.39	0.301	-0.144	60.3	60.2
MASPSRRLQTKPVITCFKSVLLIYTFIFWITGVILLAVGIWGKVSLENYFSLLNEKATNVPFVLIATGTVIILLGTFGCFATCRASAWMLKLYAMFLTLVFLVELVAAIVGFVFRHEIKNSFKNNYEKALKQYNSTGDYRSHAVDKIQNTLHCCGVTDYRDWTDTNYYSEKGFPKSCCKLEDCTPQRDADKVNNEGCFIKVMTIIESEMGVVAGISFGVACFQLIGIFLAYCLSRAITNNQYEIV [TSPAN6]	0.413	-2.28	-0.201	2.55e-05	58.9	55.8
MATQADLMELDMAMEPDRKAAVSHWQQQSYLDSGIHSGATTTAPSLSGKGNPEEEDVDTSQVLYEWEQGFSQSFTQEQVADIDGQYAMTRAQRVRAAMFPETLDEGMQIPSTQFDAAHPTNVQRLAEPSQMLKHAVVNLINYQDDAELATRAIPELTKLLNDEDQVVVNKAAVMVHQLSKKEASRHAIMRSPQMVSAIVRTMQNTNDVETARCTAGTLHNLSHHREGLLAIFKSGGIPALVKMLGSPVDSVLFYAITTLHNLLLHQEGAKMAVRLAGGLQKMVALLNKTNVKFLAITTDCLQILAYGNQESKLIILASGGPQALVNIMRTYTYEKLLWTTSRVLKVLSVCSSNKPAIVEAGGMQALGLHLTDPSQRLVQNCLWTLRNLSDAATKQEGMEGLLGTLVQLLGSDDINVVTCAAGILSNLTCNNYKNKMMVCQVGGIEALVRTVLRAGDREDITEPAICALRHLTSRHQEAEMAQNAVRLHYGLPVVVKLLHPPSHWPLIKATVGLIRNLALCPANHAPLREQGAIPRLVQLLVRAHQDTQRRTSMGGTQQQFVEGVRMEEIVEGCTGALHILARDVHNRIVIRGLNTIPLFVQLLYSPIENIQRVAAGVLCELAQDKEAAEAIEAEGATAPLTELLHSRNEGVATYAAAVLFRMSEDKPQDYKKRLSVELTSSLFRTEPMAWNETADLGLDIGAQGEPLGYRQDDPSYRSFHSGGYGQDALGMDPMMEHEMGGHHPGADYPVDGLPDLGHAQDLMDGLPPGDSNQLAWFDTDL [CTNNB1]	0.0437	0.0622	0.0555	-0.093	53.4	52.4
MAALGPSSQNVTEYVVRVPKNTTKKYNIMAFNAADKVNFATWNQARLERDLSNKKIYQEEEMPESGAGSEFNRKLREEARRKKYGIVLKEFRPEDQPWLLRVNGKSGRKFKGIKKGGVTENTSYYIFTQCPDGAFEAFPVHNWYNFTPLARHRTLTAEEAEEEWERRNKVLNHFSIMQQRRLKDQDQDEDEEEKEKRGRRKASELRIHDLEDDLEMSSDASDASGEEGGRVPKAKKKAPLAKGGRKKKKKKGSDDEAFEDSDDGDFEGQEVDYMSDGSSSSQEEPESKAKAPQQEEGPKGVDEQSDSSEESEEEKPPEEDKEEEEEKKAPTPQEKKRRKDSSEESDSSEESDIDSEASSALFMAKKKTPPKRERKPSGGSSRGNSRPGTPSAEGGSTSSTLRAAASKLEQGKRVSEMPAAKRLRLDTGPQSLSGKSTPQPPSGKTTPNSGDVQVTEDAVRRYLTRKPMTTKDLLKKFQTKKTGLSSEQTVNVLAQILKRLNPERKMINDKMHFSLKE [GTF2F1]	-0.52	-1.74	0.237	0.126	52.7	53.3
MEEHSYIQKELDLQNGSLEEDSVVHSVENDSQNMMESLSPKKYSSSLRFKANGDYSGSYLTLSQPVPAKRSPSPLGTSVRSSPSLAKIQGSKQFSYDGTDKNIPMKPPTPLLNTTSSLSGYPLGRADFDHYTGRDSERALRLSEKPPYSKYSSRHKSHDNVYSLGGLEGRKASGSLLAMWNGSSLSDAGPPPISRSGAASMPSSPKQARKMSIQDSLALQPKLTRHKELASENINLRTRKYSSSSLSHMGAYSRSLPRLYRATENQLTPLSLPPRNSLGNSKRTKLGEKDLPHSVIDNDNYLNFSSLSSGALPYKTSASEGNPYVSSTLSVPASPRVARKMLLASTSSCASDDFDQASYVGTNPSHSLLAGESDRVFATRRNFSCGSVEFDEADLESLRQASGTPQPALRERKSSISSISGRDDLMDYHRRQREERLREQEMERLERQRLETILSLCAEYTKPDSRLSTGTTVEDVQKINKELEKLQLSDEESVFEEALMSPDTRYRCHRKDSLPDADLASCGSLSQSSASFFTPRSTRNDELLSDLTRTPPPPSSTFPKASSESSYLSILPKTPEGISEEQRSQELAAMEETRIVILNNLEELKQKIKDINDQMDESFRELDMECALLDGEQKSETTELMKEKEILDHLNRKIAELEKNIVGEKTKEKVKLDAEREKLERLQELYSEQKTQLDNCPESMREQLQQQLKRDADLLDVESKHFEDLEFQQLEHESRLDEEKENLTQQLLREVAEYQRNIVSRKEKISALKKQANHIVQQAQREQDHFVKEKNNLIMMLQREKENLCNLEKKYSSLSGGKGFPVNPNTLKEGYISVNEINEPCGNSTNLSPSTQFPADADAVATEPATAVLASQPQSKEHFRSLEERKKQHKEGLYLSDTLPRKKTTSSISPHFSSATMGRSITPKAHLPLGQSNSCGSVLPPSLAAMAKDSESRRMLRGYNHQQMSEGHRQKSEFYNRTASESNVYLNSFHYPDHSYKDQAFDTLSLDSSDSMETSISACSPDNISSASTSNIARIEEMERLLKQAHAEKTRLLESREREMEAKKRALEEEKRRREILEKRLQEETSQRQKLIEKEVKIRERQRAQARPLTRYLPVRKEDFDLRSHVETAGHNIDTCYHVSITEKTCRGFLIKMGGKIKTWKKRWFVFDRNKRTFSYYADKHETKLKGVIYFQAIEEVYYDHLKNANKSPNPLLTFSVKTHDRIYYMVAPSPEAMRIWMDVIVTGAEGYTHFLL [PHLDB2]	-0.165	1.44	-0.28	0.164	48.9	49.1
MVSWMISRAVVLVFGMLYPAYYSYKAVKTKNVKEYVRWMMYWIVFALYTVIETVADQTVAWFPLYYELKIAFVIWLLSPYTKGASLIYRKFLHPLLSSKEREIDDYIVQAKERGYETMVNFGRQGLNLAATAAVTAAVKSQGAITERLRSFSMHDLTTIQGDEPVGQRPYQPLPEAKKKSKPAPSESAGYGIPLKDGDEKTDEEAEGPYSDNEMLTHKGLRRSQSMKSVKTTKGRKEVRYGSLKYKVKKRPQVYF [REEP3]	-1.24	-0.732	-0.258	-0.0257	52.8	54.9
MASCAEPSEPSAPLPAGVPPLEDFEVLDGVEDAEGEEEEEEEEEEEDDLSELPPLEDMGQPPAEEAEQPGALAREFLAAMEPEPAPAPAPEEWLDILGNGLLRKKTLVPGPPGSSRPVKGQVVTVHLQTSLENGTRVQEEPELVFTLGDCDVIQALDLSVPLMDVGETAMVTADSKYCYGPQGRSPYIPPHAALCLEVTLKTAVDGPDLEMLTGQERVALANRKRECGNAHYQRADFVLAANSYDLAIKAITSSAKVDMTFEEEAQLLQLKVKCLNNLAASQLKLDHYRAALRSCSLVLEHQPDNIKALFRKGKVLAQQGEYSEAIPILRAALKLEPSNKTIHAELSKLVKKHAAQRSTETALYRKMLGNPSRLPAKCPGKGAWSIPWKWLFGATAVALGGVALSVVIAARN [FKBP8]	1.22	3	0.229	-0.0477	48.7	49.5
